The values below come from US20240228562A1, “NOVEL LIPOCALIN MUTEINS SPECIFIC FOR CONNECTIVE TISSUE GROWTH FACTOR (CTGF)” (PIERIS PHARMACEUTICALS GMBH, priority 2021, published 2024).

Numbering of substitutions follows the chain as printed.

For one assay, the target named is T1, huCYR61 (Homo sapiens, UniProt O00622).
T1 sequence (O00622 25-381): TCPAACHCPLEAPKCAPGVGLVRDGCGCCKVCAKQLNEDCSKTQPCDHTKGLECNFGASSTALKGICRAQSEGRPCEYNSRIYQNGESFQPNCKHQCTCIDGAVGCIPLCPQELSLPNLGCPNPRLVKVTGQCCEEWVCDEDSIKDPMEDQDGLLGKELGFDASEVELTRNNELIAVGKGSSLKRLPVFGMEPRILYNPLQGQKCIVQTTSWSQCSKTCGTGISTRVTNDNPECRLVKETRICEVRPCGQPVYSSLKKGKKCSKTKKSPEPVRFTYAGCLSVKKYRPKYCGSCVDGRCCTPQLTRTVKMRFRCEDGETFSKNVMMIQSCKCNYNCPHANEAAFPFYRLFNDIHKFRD
The assay is described as follows: Specificity ELISA (CCN proteins), huCYR61. In kind it is binding. The following applies: coated 1 μg/ml; assessed when human CTGF signal approached saturation. The procedure:
Binding of muteins to closely related proteins of CTGF was tested by an ELISA assay. In detail, a 384-well plate suitable for fluorescence measurements (Greiner FLUOTRAC™ 600, black flat bottom, high-binding) was coated with 20 μl of human CTGF or the other members of the CCN protein family at a concentration of 1 μg/ml in PBS over night at 4° C. After washing with PBS with 0.05% Tween 20, wells were blocked with 100 μl blocking buffer containing 0.1% Tween 20 and 2% BSA (PBS-T/BSA) for 1 h at room temperature. 20 μl of serially diluted muteins starting at 1000 nM were incubated in PBS-T/BSA for 1 h at room temperature (RT).
The residual supernatants were discarded and 20 μl HRP-labeled anti-NGAL or anti-Strep-Tag antibody was added at a predetermined optimal concentration in PBS-T/BSA and incubated for 1 h at RT. After washing, 20 μl fluorogenic HRP substrate (QuantaBlu, Thermo) was added to each well, and the reaction was allowed to proceed for 2 to 60 minutes. The fluorescence intensity of every well on the plate was read using a fluorescence microplate reader (Tecan). When the signal for human CTGF approached saturation, the cross reactivity to the other proteins was assessed.

In assay [1] the target is T2, Murine CTGF (Mus musculus, UniProt P29268).
T2 construct: Fc (N); purchased Biozol
Nature of the assay: ELISA binding to full-length murine CTGF (Example 9). The following applies: coated 1 μg/ml, muteins from 1000 nM; for EC50: read-out: EC Murine CTGF. How it is done:
(§1) Binding of muteins to fragments of human and murine CTGF was tested by an ELISA assay. In detail, a 384-well plate suitable for fluorescence measurements (Greiner FLUOTRAC™ 600, black flat bottom, high-binding) was coated with 20 μl of human (R&D Systems, SEQ ID NO 79) and murine CTGF (Biozol, SEQ ID NO: 80) or fragments thereof (Evitria, huCTGF domains 1 and 2 with human Fc tag (SEQ ID NO 77) and muCTGF domains 1 and 2 with human Fc tag (SEQ ID NO 78)) at a concentration of 1 μg/ml in PBS over night at 4° C. After washing with PBS with 0.05% Tween 20, wells were blocked with 100 μl blocking buffer containing 0.1% Tween 20 and 2% BSA (PBS-T/BSA) for 1 h at room temperature. 20 μl of serially diluted muteins starting at 1000 nM were incubated in PBS-T/BSA for 1 h at room temperature.
(§2) The residual supernatants were discarded and 20 μl HRP-labeled anti-Strep-Tag antibody was added at a predetermined optimal concentration in PBS-T/BSA and incubated for 1 h at RT. After washing, 20 μl fluorogenic HRP substrate (QuantaBlu, Thermo) was added to each well, and the reaction was allowed to proceed for 5 to 25 minutes. The fluorescence intensity of every well on the plate was read using a fluorescence microplate reader (Tecan). Curve fitting was performed using GraphPad Prism 7 software.
T2 sequence (P29268 with tags, fused parts or gaps): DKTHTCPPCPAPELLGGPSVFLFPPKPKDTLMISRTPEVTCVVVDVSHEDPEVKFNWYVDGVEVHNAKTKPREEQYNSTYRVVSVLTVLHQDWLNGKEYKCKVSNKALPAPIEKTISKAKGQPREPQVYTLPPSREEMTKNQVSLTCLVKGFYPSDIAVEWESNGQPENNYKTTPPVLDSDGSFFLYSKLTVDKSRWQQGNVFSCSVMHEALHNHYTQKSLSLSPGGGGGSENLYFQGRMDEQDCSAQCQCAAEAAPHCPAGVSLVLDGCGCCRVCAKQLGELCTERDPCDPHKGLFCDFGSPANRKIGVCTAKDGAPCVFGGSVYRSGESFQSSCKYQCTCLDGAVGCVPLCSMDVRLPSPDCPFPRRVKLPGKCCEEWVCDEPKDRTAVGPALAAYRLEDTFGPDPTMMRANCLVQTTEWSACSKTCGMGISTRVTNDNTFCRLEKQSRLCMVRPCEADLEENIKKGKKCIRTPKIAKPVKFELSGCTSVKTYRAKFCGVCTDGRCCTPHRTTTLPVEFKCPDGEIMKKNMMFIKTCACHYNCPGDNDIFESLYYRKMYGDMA

The target of assay [2] is T3, muCTGF domains 1 and 2 with human Fc tag (Mus musculus, UniProt P29268).
T3 construct: purchased Evitria
Nature of the assay: ELISA binding to CTGF fragments, murine CTGF domains 1 and 2. The conditions noted are these: coated 1 μg/ml, muteins from 1000 nM; for EC50: read-out: EC Murine CTGF1-2-huFc. How it is done:
as §1, §2

Assay [3] has as its target T4, Murine CTGF (Mus musculus, UniProt P29268).
T4 construct: purchased Abbexa
T4 sequence (P29268 26-348): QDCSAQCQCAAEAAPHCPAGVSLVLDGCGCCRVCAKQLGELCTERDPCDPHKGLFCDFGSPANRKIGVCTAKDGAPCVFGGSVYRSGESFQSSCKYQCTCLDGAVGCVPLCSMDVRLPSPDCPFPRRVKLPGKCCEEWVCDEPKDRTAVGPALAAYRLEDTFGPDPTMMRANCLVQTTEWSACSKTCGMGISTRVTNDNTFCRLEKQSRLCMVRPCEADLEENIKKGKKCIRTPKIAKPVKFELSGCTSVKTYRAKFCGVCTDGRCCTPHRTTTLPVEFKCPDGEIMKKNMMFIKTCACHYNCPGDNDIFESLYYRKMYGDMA
The assay is described as follows: SPR binding kinetics and affinity, murine CTGF. Details: key to Murine CTGF kon / Murine CTGF koff / Murine CTGF KD: B binding without determination of kinetics constants. The following applies: 25° C., 1:1 binding model. In outline:
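Targets either amine-coupled to CM5 chip (300–1100 RU; Fc-tagged human, untagged rat/murine) or Fc-captured via anti-human IgG; muteins injected 180 s contact, 900–3600 s dissociation, 30 μL/min, 25° C. Double-referenced sensorgrams fit to 1:1 model giving kon, koff and KD.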

T3 sequence (P29268 with tags, fused parts or gaps): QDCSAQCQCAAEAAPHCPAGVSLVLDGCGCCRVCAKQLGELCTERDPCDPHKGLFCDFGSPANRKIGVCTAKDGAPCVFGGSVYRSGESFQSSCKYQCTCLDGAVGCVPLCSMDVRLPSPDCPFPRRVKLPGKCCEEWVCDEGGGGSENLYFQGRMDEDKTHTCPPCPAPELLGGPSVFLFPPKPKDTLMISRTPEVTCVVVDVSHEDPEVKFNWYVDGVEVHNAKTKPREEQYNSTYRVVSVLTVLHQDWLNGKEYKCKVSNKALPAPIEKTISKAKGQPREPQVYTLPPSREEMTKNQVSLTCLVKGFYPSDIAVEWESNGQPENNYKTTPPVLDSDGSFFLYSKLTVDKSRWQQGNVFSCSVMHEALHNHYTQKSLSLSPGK

B1: SEQ ID NO: 74: fusion protein comprising two CTGF-binding lipocalin muteins (protein)
chain: QDSTSDLIPAPPLSKVPLQQNFQDNQFQGKWYVVGLAGNAILREDKQPAKMFATIYELKEDKSYDVTSVRFEAKSCKYTIKTFVPGSQPGEFTAGYIKSAPGQTSTLVRVVSTNYNQHAMVFFKHVTQNREIFVITLYGRTKELTSELKENFIRFSKSLGLPENHIVFPVPIDQCIDGGGGGSGGGGSGGGGSQDSTSDLIPAPPLSKVPLQQNFQDNQFQGKWYVVGWAGNVKLREDKQPQKMSATIYELKEDKSYDVTEVVFEQKKCHYIIKTFVPGSQPGEFTAGDIKSPPGYTSSLVRVVSTNYNQHAMVFFKKVSQNREFFWITLYGRTKELTSELKENFIRFSKSLGLPENHIVFPVPIDQCIDG
modifications: fusion protein
For B1, the “ELISA binding to huCYR61” value with huCYR61 is on record as “No binding”.

B2: SEQ ID NO: 29: parent CTGF-binding hNGAL lipocalin mutein (protein)
chain: QDSTSDLIPAPPLSKVPLQQNFQDNQFHGKWYVVGWAGNIKLREDKDPFKMSATIYELKEDKSYNVTEVVFEQKKCHYIIKTFVPGSQPGEFTLGDIKSPPGETSSLVRVVSTNYNQHAMVFFKKVFQNREFFWITLYGRTKELTSELKENFIRFSKSLGLPENHIVFPVPIDQCIDG
modifications: lipocalin mutein
As for B2, the “EC Murine CTGF” value in the assay with Murine CTGF [1] is reported as “n.b”. In addition, the “ELISA binding to huCYR61” value with huCYR61 was “No binding”. Moreover, the EC50 in assay [2] came to 17 nM.

B3: SEQ ID NO: 7: parent CTGF-binding hNGAL lipocalin mutein (protein)
chain: QDSTSDLIPAPPLSKVPLQQNFQDNQFHGKWYVVGLAGNYGLRTDKRPSKMFATIYELKEDKSYDVTSVRFEQERCHYTIRTFVPGSQPGEFTTGSIKSRPGQTSSLVRVVSTNYNQHAMVFFKSVIQNREYFAITLYGRTKELTSELKENFIRFSKSLGLPENHIVFPVPIDQCIDG
modifications: lipocalin mutein
B3: in the assay with Murine CTGF [1], the EC50 was determined as 29 nM. For the same molecule, in the assay with huCYR61, the “ELISA binding to huCYR61” value is on record as “No binding”. For the same molecule, in the assay with Murine CTGF [3], the “Murine CTGF KD” value is “B”, the “Murine CTGF koff” value was “B” and the “Murine CTGF kon” value is reported as “B”. Moreover, the EC50 in assay [2] amounted to 14 nM.

B4: SEQ ID NO: 23: optimized CTGF-binding hNGAL lipocalin mutein (protein)
chain: QDSTSDLIPAPPLSKVPLQQNFQDNQFQGKWYVVGVAGNAILRPDKQPAKMFATIYELKEDKSYDVTSVRFEAKSCKYTIKTFVPGSQPGEFTSGQIKSAPGQTSTLVRVVSTNYNQHAMVFFKHVSQNREIFVITLYGRTKELTSELKENFIRFSKSLGLPENHIVFPVPIDQCIDG
modifications: lipocalin mutein
For the molecule B4, in the assay with huCYR61, the “ELISA binding to huCYR61” value is given as “No binding”. In the assay with Murine CTGF [3], the “Murine CTGF KD” value is “B”, the “Murine CTGF koff” value is given as “B” and the “Murine CTGF kon” value is recorded as “B”.

B5: SEQ ID NO: 9: parent CTGF-binding hNGAL lipocalin mutein (protein)
chain: B4 chain with Q28H, V36L, A40K, P44I, K74R, K77S, S94A, Q96N, I132T
modifications: lipocalin mutein
With B5, in the assay with Murine CTGF [1], the EC50 was 11 nM. Further, the “ELISA binding to huCYR61” value with huCYR61 is “No binding”. In the assay with Murine CTGF [3], the Kd came out at 6.26 nM, the “Murine CTGF koff” value worked out at 0.000832 s⁻¹ and the “Murine CTGF kon” value amounted to 133000 M⁻¹ s⁻¹. Moreover, the EC50 in assay [2] was 5.8 nM.

B6: SEQ ID NO: 15: optimized CTGF-binding hNGAL lipocalin mutein (protein)
chain: B4 chain with V36L, P44E, S94A, Q96Y, S127T
modifications: lipocalin mutein
B6: the “ELISA binding to huCYR61” value in the assay with huCYR61 is “No binding”. Moreover, in the assay with Murine CTGF [3], the “Murine CTGF koff” value amounted to 4.51e-05 s⁻¹ and the “Murine CTGF kon” value came out at 129000 M⁻¹ s⁻¹.

B7: SEQ ID NO: 3: parent CTGF-binding hNGAL lipocalin mutein (protein)
chain: QDSTSDLIPAPPLSKVPLQQNFQDNQFHGKWYVVGRAGNNRLREDKDPPKMWATIYELKEDKSYNVTHVHFMTKKCRYIIDTFVPGSQPGEFTLGAIKSGPGMTSPLVRIVSTNYNQHAMVFFKWVNQNREWFTITLYGRTKELTSELKENFIRFSKSLGLPENHIVFPVPIDQCIDG
modifications: lipocalin mutein
As for B7, the “EC Murine CTGF” value in the assay with Murine CTGF [1] is listed as “n.b”. Further, in the assay with huCYR61, the “ELISA binding to huCYR61” value is on record as “No binding”. Further, in the assay with Murine CTGF [3], the “Murine CTGF KD” value is listed as “B”, the “Murine CTGF koff” value is recorded as “B” and the “Murine CTGF kon” value is reported as “B”. The “EC Murine CTGF1-2-huFc” value in assay [2] is listed as “n.b”.

B8: SEQ ID NO: 25: parent CTGF-binding hNGAL lipocalin mutein (protein)
chain: QDSTSDLIPAPPLSKVPLQQNFQDNQFHGKWYVVGMAGNFRLREDKDPSKMGATIYELKEDKSYNVTQVQFDDKKCLYVIETFVPGSQPGEFTLGAIKSFPGFTSQLVRVVSTNYNQHAMVFFKKVYQNREVFWITLYGRTKELTSELKENFIRFSKSLGLPENHIVFPVPIDQCIDG
modifications: lipocalin mutein
With B8, in the assay with Murine CTGF [1], the “EC Murine CTGF” value is “n.b”. Besides, the “ELISA binding to huCYR61” value with huCYR61 is reported as “No binding”. Also, the EC50 in assay [2] was found to be 14 nM.
